Source: PMC3985891 (Biochemistry, 2014)

Target: the molecule itself
Test: SEC-MALS

B1: MVP-s (codon-optimized synthetic MVP, M. jannaschii voltage-gated protein), N-terminal His tag, from pET15b (natural protein, Methanococcus jannaschii, UniProt Q57603 1-209, looked up)
chain: MNLKDRRLKKIMEVLSLIFTFEIVASFILSTYNPPYQDLLIKLDYISIMFFTFEFIYNFYYVEDKAKFFKDIYNIVDAIVVIAFLLYSLQVFYSKAFLGLRVINLLRILVLLRIIKLRKLEENQALINFLTLLTICFIASCLIWIVESGVNPAINNFFDAFYFTTISITTVGYGDITPKTDAGKLIIIFSVLFFISGLITSLQKALKGD
- stoichiometry N: 4
